Values of other authors in paper PMC5811392.

What was measured:
[1] = target: p53 DBD (Homo sapiens) (UniProt P04637)
[2] = target: p53 (Homo sapiens) (UniProt P04637)
Sequence of p53 (Homo sapiens) (P04637 whole entry): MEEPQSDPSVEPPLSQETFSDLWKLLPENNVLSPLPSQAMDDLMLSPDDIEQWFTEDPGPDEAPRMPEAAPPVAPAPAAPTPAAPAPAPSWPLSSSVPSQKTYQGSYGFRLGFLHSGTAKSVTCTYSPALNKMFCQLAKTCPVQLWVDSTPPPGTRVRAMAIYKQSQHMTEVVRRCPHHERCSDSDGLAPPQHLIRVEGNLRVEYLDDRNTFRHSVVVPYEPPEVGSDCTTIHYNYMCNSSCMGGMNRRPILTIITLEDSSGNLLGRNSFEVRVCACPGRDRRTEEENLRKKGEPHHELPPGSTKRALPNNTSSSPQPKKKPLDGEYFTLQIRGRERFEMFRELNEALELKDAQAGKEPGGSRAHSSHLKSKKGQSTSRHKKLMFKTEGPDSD

Sequence of BCL-xL (Q07817 whole entry): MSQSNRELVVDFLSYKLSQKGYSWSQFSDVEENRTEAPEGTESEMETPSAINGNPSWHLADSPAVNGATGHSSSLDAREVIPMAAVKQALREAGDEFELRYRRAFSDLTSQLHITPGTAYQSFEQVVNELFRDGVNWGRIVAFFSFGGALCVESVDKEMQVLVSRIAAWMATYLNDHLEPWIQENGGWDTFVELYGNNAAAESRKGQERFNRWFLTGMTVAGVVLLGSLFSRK
Sequence of p53 DBD (Homo sapiens) (P04637 94-312): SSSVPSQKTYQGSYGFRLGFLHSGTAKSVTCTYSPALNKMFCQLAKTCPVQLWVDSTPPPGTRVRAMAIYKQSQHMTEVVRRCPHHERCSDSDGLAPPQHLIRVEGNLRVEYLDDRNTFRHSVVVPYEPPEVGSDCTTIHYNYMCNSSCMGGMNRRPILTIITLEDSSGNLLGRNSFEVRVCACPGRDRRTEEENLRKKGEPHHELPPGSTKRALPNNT

For BCL-xL (from UniProt Q07817), the Kd [1] is given as 17 µM and the Kd [2] is given as 1 µM.
